{"source": "patent US20260007728A1", "about": "“COMBINATION THERAPIES INVOLVING L-ASPARAGINASE” (Jazz Pharmaceuticals Ireland Ltd., priority 2022, published 2026)", "molecules": {"B1": {"name": "Erwinase: Erwinia chrysanthemi L-asparaginase type II product commercially approved for ALL (protein, UniProt P06608 22-348, looked up)", "L-asparaginase": "ADKLPNIVILATGGTIAGSAATGTQTTGYKAGALGVDTLINAVPEVKKLANVKGEQFSNMASENMTGDVVLKLSQRVNELLARDDVDGVVITHGTDTVEESAYFLHLTVKSDKPVVFVAAMRPATAISADGPMNLLEAVRVAGDKQSRGRGVMVVLNDRIGSARYITKTNASTLDTFKANEEGYLGVIIGNRIYYQNRIDKLHTTRSVFDVRGLTSLPKVDILYGYQDDPEYLYDAAIQHGVKGIVYAGMGAGSVSVRGIAGMRKAMEKGVVVIRSTRTGNGIVPPDEELPGLVSDSLNPAHARILLMLALTRTSDPKVIQEYFHTY"}, "B2": {"name": "JZP341: pasylated L-asparaginase; long acting Erwinia asparaginase (protein, UniProt P06608 22-348, looked up)", "L-asparaginase": "B1 L-asparaginase", "modifications": "PASylated"}, "B3": {"name": "JZP-458: recombinant, unfunctionalized, short acting Erwinia L-asparaginase (SEQ ID NO: 1 tetramer) (protein, listed as Dickeya chrysanthemi)", "chain": "B1 L-asparaginase", "modifications": "homotetramer"}}, "key": {"[1]": {"test_system": "BCL2 expression in triple hit lymphoma line WSU-DLCL2", "assay": "qPCR gene expression after compound treatment", "format": "cell-based", "description": "(§1) Cell Culture: Cell culture medium: RPMI 1640 medium (#2198761, Thermo Fisher) supplemented with 10% fetal calf serum (#S00AZ, BioWest) and 1% pen/strep (#15140-122, Thermo Fisher). At day-1, 900 μl cell suspension was seeded in 24-well plates (#662165, Greiner Bio-One) at a density of 128,000 cells/well. At day 0, 100 μl compound was added in three different concentrations to reach a final concentration of 0.316×IC50, 1×IC50, and 3.16×IC50 (unless indicated otherwise). To the control samples, 100 μl 20 mM HEPES+3.16% DMSO was added instead of compound. When the compound is prepared in HEPES instead of DMSO, 20 mM HEPES without DMSO was added to the cells. The cells were collected at 6 hours, 24 hours and 48 hours after addition of the compound and were transferred to a 96-well deep well plate and centrifuged for 5 min at 340×g. Prior to the collection of the cells microscopic pictures were taken from the untreated (control) cells. After removing the medium, 200 μl RNA protect (#76526, Qiagen) was added to the cell pellet and the cells were stored at −80° C.\n(§2) RNA isolation: Total RNA was isolated with the SV96 Total RNA Isolation System kit (#Z3505, Promega) according to manufacturer's instructions. The procedure includes a ‘RNAse free DNAse’ gDNA removal step.\n(§3) Determining the RNA concentration: RNA concentrations were determined with the RiboGreen (#R11490, Thermo Fisher) kit according to manufacturer's instructions.\n(§4) cDNA synthesis: RNA was reverse transcribed into cDNA using the Quantitect Reverse Transcript Kit (#205313, Qiagen) according to manufacturer's instructions. This procedure includes a second ‘RNAse free DNAse’ gDNA removal step, ensuring the complete removal of gDNA from the samples. For each time point (6 h, 24 h, or 48 h) identical volumes of RNA were used for cDNA synthesis. After synthesis, cDNA is diluted with nuclease free water to obtain approximately similar cDNA concentrations per sample.\n(§5) qPCR: 1) 50° C. for 10 min (Uracil-DNA glycosylase ([…]) step to remove all potential traces of amplicon DNA from previous qPCRs); 2) 5 min UDP inactivation/denaturation at 95° C.; 3) 40 cycles of 10s denaturation at 95° C., 20s annealing at 60° C., and 30s extension at 72° C.; and 4) Dissociation curve to determine the melting temperature of the qPCR amplicon.\n(§6) qPCR Data Analysis: Cq and Tm raw data values are determined by the BioRad CFX manager software from the PCR machine. For every PCR sample that produced a Cq value the corresponding melting temperature of the PCR amplicon (Tm) was checked to identify samples that generated dual or a specific PCR products. A PCR product is regarded a specific when its Tm is >0.5° C. different from that the Tm of the specific PCR amplicon, in this case the Cq value is removed and not used for further data analysis. Cq values were than normalized by subtracting the (mean) Cq value of the two housekeeping genes (ACTB & RPS18) from the Cq value of the gene of interest. The normalized value is called DCq. The Cq difference between sample and the control (DDCq) was calculated by subtracting DCq control from DCq sample. The fold difference in expression between the control (no compound) and the compound treated sample is than calculated according the 2^-DDCq method."}, "[2]": {"test_system": "cell lines with low and high ASNS expression", "assay": "Bliss synergy of pathway inhibitors with JZP-458 (cytotoxicity readout)", "format": "cell-based", "settings": "in combination with JZP-458", "description": "Combination study BLISS matrix-Bliss Assay Protocol: Cells were plated in 384-well plates in 45 μl cell culture medium at a density of, that is, at numbers of cells per well as indicated in FIG. 24. For each cell line, the optimal cell density was determined a priori to obtain an optimal assay window. Plated cells were incubated in a humidified incubator with 5% CO2 at 37° C. 24 hours post-plating, 5 μl of compound dilution was added to each well and plates were further incubated for another 72 hours after which 25 μl of ATPlite 1 Step (PerkinElmer, Groningen, The Netherlands) solution was added to each well. Luminescence was recorded on an Envision multimode reader (PerkinElmer, Waltham, MA, U.S.A.). For determination of Bliss independence scores, two drugs were added in increasing concentrations in a 6×6 matrix. […] The percent viability for each drug either alone or in combination was determined relative to control samples and the Bliss independence scores for each combination were determined as described (Liu, Q., et al., Stat Biopharm. Res. 10: 112; 2018). […]"}, "[3]": {"assay": "Aggregation of asparaginase batches", "format": "physicochemical", "settings": "product batches", "excerpt": "In some embodiments, the recombinant L-asparaginase of the disclosure has greater purity than other L-asparaginases. […] In some embodiments, the amount of aggregation of the recombinant L-asparaginase is less than 10%, 9%, 8%, 7%, 6%, 5%, 4%, 3%, 2%, 1%, 0.5%, 0.25%, 0.2%, 0.1%, or 0.01%. In some embodiments, the amount of aggregation seen in compositions containing the recombinant L-asparaginase is less than 1-10%. In some embodiments, the amount of aggregation seen in compositions containing the recombinant L-asparaginase is less than 10%. In some embodiments, the amount of aggregation of the recombinant L-asparaginase is less than 9%. In some embodiments, the amount of aggregation of the recombinant L-asparaginase is less than 8%. In some embodiments, the amount of aggregation of the recombinant L-asparaginase is less than 7%. In some embodiments, the amount of aggregation of the recombinant L-asparaginase is less than 6%. In some embodiments, the amount of aggregation of the recombinant L-asparaginase is less than 5%. In some embodiments, the amount of aggregation of the recombinant L-asparaginase is less than 4%. In some embodiments, the amount of aggregation of the recombinant L-asparaginase is less than 3%. In some embodiments, the amount of aggregation of the recombinant L-asparaginase is less than 2%. […]"}, "[4]": {"assay": "In vivo tolerability study in naïve SCID mice", "settings": "150 U/kg in combination with venetoclax and R-CHOP constituents", "excerpt": "Sensitivity to asparaginase and 11 chemotherapeutic agents (carfilzomib, doxorubicin, rapamycin, ibrutinib, cyclophosphamide, prednisolone, metformin, venetoclax, navitoclax, rituximab and vincristine) determined in 8 lymphoma lines, including diffuse large B-cell and Burkitt lymphomas. The investigated lymphoma lines are sensitive to asparagine depletion within the clinically achievable range. Expression of decisive genes (BCL2, BCL6, BCL2L1, MYC, ASNS) determined in 8 lymphoma lines (FIGS. 11 and 12). Increased expression of BCL2 served as marker for resistance of ibrutinib and rapamycin in triple hit lymphoma (FIGS. 11 and 12). Increased expression of ASNS served as marker for resistance of carfilzomib and asparaginase in Burkitt lymphoma (FIGS. 11 and 12). Identified combination agents that enhanced asparaginase activity in vitro include synergy of JZP458 and rituximab, venetoclax and ibrutinib in lymphoma lines (DLBCL) (see FIG. 13, FIG. 15, and FIG. 17). […] In vivo tolerability study of long acting Erwinia Asparaginase."}, "[5]": {"assay": "Half life of asparaginases", "settings": "in vivo"}, "[6]": {"test_system": "liquid tumors with NRAS mutations", "assay": "Sensitivity to L-asparaginase across cell line panel by NRAS status", "format": "cell-based", "settings": "NRAS mutant vs other lines", "description": "Sensitivity to L-asparaginase was determined in 140 lines across multiple indications. In silico tandem perturbation effects of Asparagine synthetase and signaling components analyzed (≈700 lines). A subset of lines are ASNS dependent for survival (see McDonald, E. Robert et al. (2017). Project DRIVE: A Compendium of Cancer Dependencies and Synthetic Lethal Relationships Uncovered by Large-Scale, Deep RNAi Screening. Cell 170, 577-592 and https://oncologynibr.shinyapps.io/drive/which is herein incorporated by reference to show expression of ASNS and sensitivity to asparagine depletion). In vitro, most lines are sensitive to asparagine depletion within a clinically achievable range (see FIG. 6)."}, "[7]": {"test_system": "BCL2 expression in DLBCL lines (ABC and GCB type)", "assay": "qPCR gene expression after compound treatment", "format": "cell-based", "description": "as §1, §2, §3, §4, §5, §6"}, "[8]": {"test_system": "ASNS expression in Burkitt lymphoma lines", "assay": "qPCR gene expression after compound treatment", "format": "cell-based", "description": "as §1, §2, §3, §4, §5, §6"}}, "data": [{"molecule": "C=CC(=O)N1CCC[C@@H](n2nc(-c3ccc(Oc4ccccc4)cc3)c3c(N)ncnc32)C1", "note": "[ibrutinib]", "values": [{"measurement": "increase of BCL2 expression", "setting": "[1]", "result": 1.25, "unit": "fold"}]}, {"molecule": "CO[C@H]1C[C@@H]2CC[C@@H](C)[C@@](O)(O2)C(=O)C(=O)N2CCCC[C@H]2C(=O)O[C@H]([C@H](C)C[C@@H]2CC[C@@H](O)[C@H](OC)C2)CC(=O)[C@H](C)/C=C(\\C)[C@@H](O)[C@@H](OC)C(=O)[C@H](C)C[C@H](C)/C=C/C=C/C=C/1C", "note": "[rapamycin]", "values": [{"measurement": "increase of BCL2 expression", "setting": "[1]", "result": 1, "unit": "fold"}]}, {"molecule": "CO[C@H]1C[C@@H]2CC[C@@H](C)[C@@](O)(O2)C(=O)C(=O)N2CCCC[C@H]2C(=O)O[C@H]([C@H](C)C[C@@H]2CC[C@@H](OCCO)[C@H](OC)C2)CC(=O)[C@H](C)/C=C(\\C)[C@@H](O)[C@@H](OC)C(=O)[C@H](C)C[C@H](C)/C=C/C=C/C=C/1C", "note": "[everolimus]", "values": [{"measurement": "Bliss sum score compared with PI3K inhibitors and MEK inhibitors", "setting": "[2]", "result": "increased"}]}, {"molecule": "B1", "values": [{"measurement": "aggregation", "setting": "[3]", "result": "about 6%"}]}, {"molecule": "B2", "values": [{"measurement": "tolerability", "setting": "[4]", "result": "tolerated"}, {"measurement": "half life t½", "setting": "[5]", "result": "~16", "unit": "h"}]}, {"molecule": "B3", "values": [{"measurement": "sensitivity of liquid tumors with NRAS mutations", "setting": "[6]", "result": "more sensitive"}, {"measurement": "change of BCL2 expression", "setting": "[7]", "result": "decrease"}, {"measurement": "change of ASNS expression", "setting": "[8]; Burkitt lymphoma lines", "result": "significantly increase"}, {"measurement": "increase of ASNS expression", "setting": "[8]; Burkitt lymphoma lines (BJAB, RAJI, RAMOS), after treatment", "result": 0.75, "unit": "fold"}, {"measurement": "half life t½", "setting": "[5]", "result": "~2.13", "unit": "h"}]}]}
